Laboratory results published in article PMC9482650, “Quantitative fragmentomics allow affinity mapping of interactomes” (Nature Communications, 2022).
Numbering of substitutions follows the chain as printed.

Legend:
Assay in all cases: holdup assay
Set-up in all cases: key: below the threshold = too weak to quantify, mostly under pKd 3.1 to 4
Settings in all cases: plain residues with an end cap or a label only (N-terminal biotin on a linker: ado-ado)
[1] = target: ARHGEF12, Q9NZN5-2
[2] = target: SCRIB_3, Q14160
Sequence of SCRIB_3, Q14160 (Q14160 999-1103): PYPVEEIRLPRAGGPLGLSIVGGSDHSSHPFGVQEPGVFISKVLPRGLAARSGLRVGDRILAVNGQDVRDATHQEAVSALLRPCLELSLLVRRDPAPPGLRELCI

[3] = target: T1, GRIP1_2, Q9Y3R0
T1 sequence (Q9Y3R0 145-248, limits assumed, looked up): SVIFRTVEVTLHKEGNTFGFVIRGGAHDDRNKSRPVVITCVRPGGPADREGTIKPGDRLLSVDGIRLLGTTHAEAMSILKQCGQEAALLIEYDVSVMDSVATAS

[4] = target: T2, LIN7A, O14910
T2 sequence (O14910 103-200, limits assumed, looked up): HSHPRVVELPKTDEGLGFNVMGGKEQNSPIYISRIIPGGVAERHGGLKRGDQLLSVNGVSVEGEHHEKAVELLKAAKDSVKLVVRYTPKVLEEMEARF

[5] = target: HTRA2, O43464
Sequence of HTRA2, O43464 (O43464 355-458): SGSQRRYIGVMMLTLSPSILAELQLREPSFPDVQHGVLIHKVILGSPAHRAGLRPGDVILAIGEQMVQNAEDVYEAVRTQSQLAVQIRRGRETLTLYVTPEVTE

[6] = target: NHERF4_1, Q86UT5-2
Sequence of NHERF4_1, Q86UT5-2 (Q86UT5 other isoform, or with tags, fused parts or gaps): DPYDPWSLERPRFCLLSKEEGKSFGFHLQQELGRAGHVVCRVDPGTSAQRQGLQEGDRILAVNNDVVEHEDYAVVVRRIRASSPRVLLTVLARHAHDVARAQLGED

[7] = target: FRMPD2_2, Q68DX3
Sequence of FRMPD2_2, Q68DX3 (Q68DX3 944-1038): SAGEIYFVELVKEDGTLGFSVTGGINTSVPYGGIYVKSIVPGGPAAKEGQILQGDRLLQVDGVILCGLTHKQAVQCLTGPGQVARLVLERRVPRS

[8] = target: T3, DLG3_1, Q92796
T3 sequence (Q92796 125-227, limits assumed, looked up): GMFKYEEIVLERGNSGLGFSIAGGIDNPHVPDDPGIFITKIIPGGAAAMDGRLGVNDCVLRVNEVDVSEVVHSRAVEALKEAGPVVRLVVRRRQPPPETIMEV

[9] = target: TJP1_3, Q07157
Sequence of TJP1_3, Q07157 (Q07157 416-512): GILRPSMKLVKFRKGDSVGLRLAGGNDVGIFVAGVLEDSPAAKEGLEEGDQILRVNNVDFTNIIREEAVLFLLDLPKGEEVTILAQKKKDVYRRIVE

[10] = target: Inadl_8, Q8NI35
Sequence of Inadl_8, Q8NI35 (Q8NI35 1425-1530): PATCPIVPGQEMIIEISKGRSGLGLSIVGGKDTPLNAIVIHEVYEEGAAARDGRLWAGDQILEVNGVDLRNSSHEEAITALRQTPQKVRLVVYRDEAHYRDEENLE

[11] = target: T4, DVL3, Q92997
T4 sequence (Q92997 244-331, limits assumed, looked up): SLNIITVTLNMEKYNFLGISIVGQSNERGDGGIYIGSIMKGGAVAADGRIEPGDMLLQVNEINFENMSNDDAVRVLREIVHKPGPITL

[12] = target: PDLIM1, O00151
Sequence of PDLIM1, O00151 (O00151 1-87): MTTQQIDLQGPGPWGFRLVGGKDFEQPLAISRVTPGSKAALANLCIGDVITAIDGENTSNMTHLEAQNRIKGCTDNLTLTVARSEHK

[13] = target: T5, PCLO, Q9Y6V0
T5 sequence (Q9Y6V0 4491-4600, limits assumed, looked up): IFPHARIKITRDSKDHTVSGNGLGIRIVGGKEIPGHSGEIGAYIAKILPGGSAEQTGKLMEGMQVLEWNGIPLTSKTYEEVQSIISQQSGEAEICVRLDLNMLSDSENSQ

[14] = target: HTRA1, Q92743
Sequence of HTRA1, Q92743 (Q92743 360-477): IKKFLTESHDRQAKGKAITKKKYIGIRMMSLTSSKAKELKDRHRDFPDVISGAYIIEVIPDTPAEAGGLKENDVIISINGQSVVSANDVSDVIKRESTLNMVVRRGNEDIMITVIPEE

[15] = target: IL16_4, Q14005
Sequence of IL16_4, Q14005 (Q14005 1229-1329): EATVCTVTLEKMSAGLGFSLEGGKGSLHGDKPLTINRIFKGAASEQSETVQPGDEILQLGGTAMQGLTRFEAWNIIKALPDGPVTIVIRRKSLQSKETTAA

[16] = target: T6, FRMPD1, Q5SYB0
T6 sequence (Q5SYB0 52-145, limits assumed, looked up): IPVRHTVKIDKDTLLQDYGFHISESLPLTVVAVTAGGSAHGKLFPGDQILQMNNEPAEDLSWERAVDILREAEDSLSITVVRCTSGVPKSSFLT

[17] = target: T7, PDZRN3_1, Q9UPQ7
T7 sequence (Q9UPQ7 244-349, limits assumed, looked up): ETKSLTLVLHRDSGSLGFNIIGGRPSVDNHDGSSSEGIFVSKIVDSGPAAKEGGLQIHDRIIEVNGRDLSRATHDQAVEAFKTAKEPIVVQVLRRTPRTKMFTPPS

[18] = target: T8, MPP6, Q9NZW5
T8 sequence (Q9NZW5 125-219, limits assumed, looked up): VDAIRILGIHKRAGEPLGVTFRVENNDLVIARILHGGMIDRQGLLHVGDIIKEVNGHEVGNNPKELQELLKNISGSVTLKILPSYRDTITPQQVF

[19] = target: GRID2IP_1, A4D2P6
Sequence of GRID2IP_1, A4D2P6 (A4D2P6 1-87): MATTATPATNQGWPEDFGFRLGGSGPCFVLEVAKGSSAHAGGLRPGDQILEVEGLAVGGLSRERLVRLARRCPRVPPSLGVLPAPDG

[20] = target: T9, SNTG1, Q9NSN8
T9 sequence (Q9NSN8 52-150, limits assumed, looked up): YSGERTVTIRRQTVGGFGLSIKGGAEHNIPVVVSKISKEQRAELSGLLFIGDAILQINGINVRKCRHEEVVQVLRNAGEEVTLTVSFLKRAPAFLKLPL

[21] = target: LAP2, Q96RT1
Sequence of LAP2, Q96RT1 (Q96RT1 other isoform, or with tags, fused parts or gaps): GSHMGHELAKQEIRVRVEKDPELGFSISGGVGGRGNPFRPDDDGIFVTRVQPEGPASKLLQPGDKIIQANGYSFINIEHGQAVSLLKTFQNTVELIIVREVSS

[22] = target: T10, DLG3_2, Q92796
T10 sequence (Q92796 221-321, limits assumed, looked up): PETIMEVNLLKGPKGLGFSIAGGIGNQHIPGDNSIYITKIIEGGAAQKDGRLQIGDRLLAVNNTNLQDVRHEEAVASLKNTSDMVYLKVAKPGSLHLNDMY

[23] = target: T11, APBA2_1, Q99767
T11 sequence (Q99767 563-664, limits assumed, looked up): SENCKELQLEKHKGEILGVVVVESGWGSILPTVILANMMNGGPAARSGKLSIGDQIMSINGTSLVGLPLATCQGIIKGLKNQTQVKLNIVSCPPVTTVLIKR

[24] = target: LNX1_3, Q8TBB1
Sequence of LNX1_3, Q8TBB1 (Q8TBB1 500-596): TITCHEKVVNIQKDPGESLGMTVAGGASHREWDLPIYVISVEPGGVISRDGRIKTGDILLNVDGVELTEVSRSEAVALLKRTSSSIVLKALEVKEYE

[25] = target: GORASP2, Q9H8Y8
[26] = target: T12, LIN7B, Q9HAP6
T12 sequence (Q9HAP6 88-185, limits assumed, looked up): T2 sequence (O14910 103-200, limits assumed, looked up) with S2A, V20I, I35V, E42D, H65Q, K77Q, D78G, K89R

Sequence of ARHGEF12, Q9NZN5-2 (Q9NZN5 other isoform, or with tags, fused parts or gaps): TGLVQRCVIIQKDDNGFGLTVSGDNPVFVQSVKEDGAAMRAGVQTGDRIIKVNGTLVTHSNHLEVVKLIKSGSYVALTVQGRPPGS

| Binder | pKd [1] | pKd [2] | pKd [3] | pKd [4] | pKd [5] | pKd [6] | pKd [7] | pKd [8] | pKd [9] | pKd [10] | pKd [11] | pKd [12] | pKd [13] | pKd [14] | pKd [15] | pKd [16] | pKd [17] | pKd [18] | pKd [19] | pKd [20] | further results |
| --- | --- | --- | --- | --- | --- | --- | --- | --- | --- | --- | --- | --- | --- | --- | --- | --- | --- | --- | --- | --- | --- |
| GTGYDRKDYV [CLDN3, O15551] | below the threshold | below the threshold | below the threshold | below the threshold | below the threshold | 3.66 | below the threshold | below the threshold | 3.54 | 4.13 | 3.72 | below the threshold | below the threshold | 4.14 | 3.73 | below the threshold | below the threshold | below the threshold | below the threshold | below the threshold | pKd [21]: below the threshold; pKd [22]: below the threshold; pKd [23]: below the threshold; pKd [24]: 3.49; pKd [25]: 3.57; pKd [26]: below the threshold |
| RSSGGDDFWF [KCNV1, Q6PIU1] | below the threshold | 4.29 | below the threshold | below the threshold | below the threshold | below the threshold | below the threshold | below the threshold | below the threshold | below the threshold | 3.64 | below the threshold | below the threshold | 4.61 | below the threshold | below the threshold | below the threshold | below the threshold | below the threshold | below the threshold | pKd [21]: below the threshold; pKd [22]: 4.06; pKd [23]: below the threshold; pKd [24]: below the threshold; pKd [25]: 4.21; pKd [26]: 3.7 |
| RDPPAEWTRV [PTPN18, Q99952] | 3.88 | below the threshold | below the threshold | 3.58 | below the threshold | 3.62 | 4 | 3.61 | below the threshold | 4.2 | below the threshold | below the threshold | below the threshold | 4.4 | 3.6 | below the threshold | 3.55 | below the threshold | below the threshold | below the threshold | pKd [21]: 4.02; pKd [22]: 4.2; pKd [23]: below the threshold; pKd [24]: 3.68; pKd [25]: 4.11; pKd [26]: below the threshold |
